Laboratory results published in patent publication US20240270804.

Molecular target: T1, myc- and green-fluorescent protein (GFP) tagged mAKAP 1694-1833 (UniProt Q9WVC7)
T1 sequence: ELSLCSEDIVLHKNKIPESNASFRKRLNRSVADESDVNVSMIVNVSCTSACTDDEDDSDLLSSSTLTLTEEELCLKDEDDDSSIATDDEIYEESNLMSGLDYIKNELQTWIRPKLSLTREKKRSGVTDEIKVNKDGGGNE

“endogenous CaMKII (Ca2+/calmodulin-dependent protein kinase II) of neonatal rat ventricular myocytes” was tested. Which “HDAC4 phosphorylation (basal and Angiotensin II-induced) in neonatal myocytes” value did it give?
Its value is “both basal and Angiotensin II-induced HDAC4 phosphorylation in neonatal myocytes is inhibited by mAKAP 1694-1833 expression”.
